{
  "source": "the DeepSol protein solubility set",
  "data": [
    {"test": "soluble on expression in E. coli; label from the status in PepcDB or PDB records", "values": [
      {"sequence": "MKILITGGAGFIGSAVVRHIIKNTQDTVVNIDKLTYAGNLESLSDISESNRYNFEHADICDSAEITRIFEQYQPDAVMHLAAESHVDRSITGPAAFIETNIVGTYALLEVARKYWSALGEDKKNNFRFHHISTDEVYGDLPHPDEVENSVTLPLFTETTAYAPSSPYSASKASSDHLVRAWRRTYGLPTIVTNCSNNYGPYHFPEKLIPLVILNALEGKPLPIYGKGDQIRDWLYVEDHARALHMVVTEGKAGETYNIGGHNEKKNLDVVFTICDLLDEIVPKATSYREQITYVADRPGHDRRYAIDAGKISRELGWKPLETFESGIRKTVEWYLANTQWVNNVKSGAYQSWIEQNYEGRQ", "soluble on expression in E. coli": "soluble"},
      {"sequence": "MKILLIGGSGNIGRAIAAELSGRHEIIAAGRHHGDVRVDIEDEQSIAAMYRQLPRLDAVAVATGGRNGHVGPLAEMNAERYRVGLDAKLMGQVNLVLRGLDKVADGGSFTLVGGAWQPQAIVPLLSNVYMANAALEGFVNAAAVELPRRLRINLVSPLLLAESEAEYGPLFRGVPLVEARQVARAYSLSIEGLEHHHHHH", "soluble on expression in E. coli": "not soluble"},
      {"sequence": "MKIMINPKYEYLREYVERIPKDFETIGTVIHSGRNLIKMITVDGLDINVKRYTIPPLINRIAYAFFRPSKGKRAFVYPEKLLEKGFETPCPIAYIEETKMGLIGHSYFMSIQSPYRYNFCQFGNADIKSCEDVVTAFAEFTARLHEAGILHLDYSPGNILYDKIGEEYHFSLVDINRMHFGEVDIKKGCANFARLWGQTPFFILLGKEYAHSRGMDEEECVRLVLHYRKKFWNRYRRRHQVWFQLDI", "soluble on expression in E. coli": "not soluble"},
      {"sequence": "MKITLIIPTYNAGSIWPNVLDAIKQQTIYPDKLIVIDSGSKDETVLLASDLKNISIFNIDSKDFNHGGTRNLAVTKTLDADVIIFLTQDAILADSDAIKNLVYYFSDPLIAAVCGRQLPHKDANPLAVHARNFNYSSKSIVKSKADIEKFGIKTVFMSNSFAAYRRSVFEELSGFPEHTILAEDMFMAAKMIQAGYKVAYCAEAVVRHSHNYTPREEFQRYFDTGVFHACSPWIQRDLGGAGGEGFRFVKSEIQFLLKNAPFWIPRALLTTFAKFLGYKLGKHWQSLPLSTCRYFSMYKSYWNNIQYSSSKEIKLEHHHHHH", "soluble on expression in E. coli": "not soluble"},
      {"sequence": "MKIVKAEVFVTCPGRNFVTLKITTEDGITGLGDATLNGRELSVASYLQDHLCPRLIGRDAHRIEDIWQFFYKGAYWRRGPVTMSAISAVDMALWDIKAKAANMPLYQLLGGASREGVMVYCHTTGHSIDEALDDYARHQELGFKAIRVQCGIPGMKTTYGMSKGKGLAYEPATKGQWPEEQLWSTEKYLDFMPKLFDAVRNKFGFNEHLLHDMHHRLTPIEAARFGKSIEDYRMFWMEDPTPAENQECFRLIRQHTVTPIAVGEVFNSIWDCKQLIEEQLIDYIRTTLTHAGGITGMRRIADFASLYQVRTGSHGPSDLSPVCMAAALHFDLWVPNFGVQEYMGYSEQMLEVFPHNWTFDNGYMHPGDKPGLGIEFDEKLAAKYPYEPAYLPVARLEDGTLWNR", "soluble on expression in E. coli": "not soluble"},
      {"sequence": "MKIVRASRDQSAPVYGPRAGSQCMSNCFTFLHTCYLMGIDPVLDTTSLDAVLDSGARLDAIADEKVKRQALTDHPYRLGTEIPTVIETPAGITGHALSRPFNGTAETQDLGGYKCLGILDFLTYARGKPLPVYIIVTVGVHTRGVIVARGATYVFDPHTTDLSAEAAVYVCDDFTEAISALSFFTEMIGDFYYDAVLVYFTRCRTTLISPSELLVQIMDQYKDPDIDASVMS", "soluble on expression in E. coli": "soluble"},
      {"sequence": "MKKEEGLTENTGLPRKLLEKHDPWPAYVTYTSQTVKRLIEKSKTRELECMRALEERPWASRQNKPSSVIQPKRRKSSKSSGKAVFRDTLSESTLSMWGAYSVLAMAPTMIPEPTHLHADSRDCPTENYNKIIFARKPMMRMLPTVRY", "soluble on expression in E. coli": "not soluble"},
      {"sequence": "MKKGVLFDLDGTILDFEKSEDQALKRTFLKYGIPLTEDQVFLYREINRKWWKLLAEGKVSKDVVVVARFEEFLKTLNIPLDPRKVAKDYLEFLSEEAHFLPGAEEFLERLKKKDLRMAVVTNGVRFVQEKRSRKLKLDRFFEFVLTSEEAGVEKPDPRIFWLALERMKLKKEEVLYVGDDFSSDLEGARNAGIDFVLFSSDGDSSGDFPVARNFKELEKIVEEFL", "soluble on expression in E. coli": "soluble"},
      {"sequence": "MKKIAIFGSRHKSEQGASIKALILKLEEAGTPLYIERKFLSFLKQDLDFHPAICGVIDTLPEHIDYVICMGGDGTFLRTAHQIGVSQIPVLGVNTGRLGFLTDVDCHEASELITRLLDGDFTIETRSLLEVTEDNGSSPSYALNEAAILKRETGSMIRVNACLNDDYLAAYDADGLVVATPSGSTAYSLSGNGPIIMPACRNFVLTPIAPHSLNMRPLVVPDDTVIRLEVDSRSRNYLLVLDGRTRTLPCDTSILLKRAPHTLRMIRLRPHSFAETLRRKLMWGAAVRLEHHHHHH", "soluble on expression in E. coli": "soluble"},
      {"sequence": "MKKIATATIATAGFATIAIASGNQAHASEQDNYGYNPNDPTSYSYTYTIDAQGNYHYTWKGNWHPSQLNQDNGYYSYYYYNGYNNYNYNNYNNGYSYNNYSRYNNYSNNNQSYNYNNYNSYNTNSYRTGGLGASYSTSSNNVQVTTTMAPSSNGRSISSGYTSGRNLYTSGQCTYYVFDRVGGKIGSTWGNASNWANAAARAGYTVNNTPKAGAIMQTTQGAYGHVAYVESVNSNGSVRVSEMNYGYGPGVVTSRTISASQAAGYNFIHLEHHHHHH", "soluble on expression in E. coli": "not soluble"},
      {"sequence": "MKKIKKAIIPAAGLGTRFLPATKAMPKEMLPILDKPTIQYIVEEAARAGIEDIIIVTGRHKRAIEDHFDSQKELEMVLKEKGKSELLEKVQYSTELANIFYVRQKEQKGLGHAISSARQFIGNEPFAVLLGDDIVESEVPAVKQLIDVYEETGHSVIGVQEVPEADTHRYGIIDPLTKNGRQYEVKKFVEKPAQGTAPSNLAIMGRYVLTPEIFDYLKTQKEGAGNEIQLTDAIERMNNDNQVYAYDFEGERYDVGEKLGFVKTTIEYALKDDSMREELTRFIKALGL", "soluble on expression in E. coli": "not soluble"},
      {"sequence": "MKKILALLVIAPLLVSCSGNKNQVENEVFVKDTNGFEILMGQFAHNIENIWGLKEVLIAGPKDYVKYTDQYQTRSHINFDAGTITIETIATTNPAAHLRQAIITTLLMGDDPGSIDLYSDVNDIQISKEPFLYGQVLDNNGEPIRWEWRAAHFADYLLQNKMQTRTSGLHVISFVTIQLVPNHLDKRAHKYLPLVRKSAARYGVEESLILAIMQTESSFNPYAVSRSDALGLMQVVQHTAGKDVFKLKGKSGQPSRSYLFDPENNIDAGTAYLSILQNTYLGGIQNATSRRYAVITSYNGGAGSVLRVFHSDKNKAVGIINTMSPGDVFQTLTTKHPSGESRRYLVKVNSAQKNYRRY", "soluble on expression in E. coli": "not soluble"},
      {"sequence": "MKKILVGIPNYNNAAYIVDTIESVLKQSYSGVDVVVFDNASTDDSVEIIENTFLNNPNVLLKKSASNVGPTMNHNRCLEYAIDNEYDYLKVLSSDDVLLPNIIQEQFELLESEPRGAFATCNMIVTDDKLTKIKDHDFLGSNTDGNAVIKKCASHSANYIGGPSNGLLRVSCIGATRFSPEYKWLSDLKFYCDLLANRPFINTGTNGFFYRRHDNTDSSHVSKIKNLQRKESIRFSGEYGGNFLTKIKIYLRDIKSRLLLEHHHHHH", "soluble on expression in E. coli": "not soluble"},
      {"sequence": "MKKILVLGGAHIDRRGMIETETAPGASNPGSWMEEAGGGGFNAARNLSRLGFEVRIIAPRGGDVTGEVVAEAARQAGVEDTPFTFLDRRTPSYTAILERDGNLVIALADMDLYKLFTPRRLKVRAVREAIIASDFLLCDANLPEDTLTALGLIARACEKPLAAIAISPAKAVKLKAALGDIDILFMNEAEARALTGETAENVRDWPNILRKAGLSGGVVTRGASEVVAFNGTEKAILHPPLIREVKDVTGAGDAMASGYLAAIAEGKTIREALRQGAAAAAITVQSSFATSQDLSKDSVEAMLGLVPQAEMLA", "soluble on expression in E. coli": "soluble"},
      {"sequence": "MKKKIESYQGAAGGWGAVKSVANAVRKQMDIRQDVIAMFDMNKPEGFDCPGCAWPDPKHSASFDICENGAKAIAWEVTDKQVNASFFAENTVQSLLTWGDHELEAAGRLTQPLKYDAVSDCYKPLSWQQAFDEIGARLQSYSDPNQVEFYTSGRTSNEAAFLYQLFAREYGSNNFPDCSNMCHEPTSVGLAASIGVGKGTVLLEDFEKCDLVICIGHNPGTNHPRMLTSLRALVKRGAKMIAINPLQERGLERFTAPQNPFEMLTNSETQLASAYYNVRIGGDMALLKGMMRLLIERDDAASAAGRPSLLDDEFIQTHTVGFDELRRDVLNSEWKDIERISGLSQTQIAELADAYAAAERTIICYGMGITQHEHGTQNVQQLVNLLLMKGNIGKPGAGICPLRGHSNVQGDRTVGITEKPSAEFLARLGERYGFTPPHAPGHAAIASMQAICTGQARALICMGGNFALAMPDREASAVPLTQLDLAVHVATKLNRSHLLTARHSYILPVLGRSEIDMQKNGAQAVTVEDSMSMIHASRGVLKPAGVMLKSECAVVAGIAQAALPQSVVAWEYLVEDYDRIRNDIEAVLPEFADYNQRIRHPGGFHLINAAAERRWMTPSGKANFITSKGLLEDPSSAFNSKLVMATVRSHDQYNTTIYGMDDRYRGVFGQRDVVFMSAKQAKICRVKNGERVNLIALTPDGKRSSRRMDRLKVVIYPMADRSLVTYFPESNHMLTLDNHDPLSGIPGYKSIPVELEPSN", "soluble on expression in E. coli": "not soluble"},
      {"sequence": "MKKLFALLFISMISGMIMAQIPEVSGTIVFKKDGQPVVGALVSVLGTDISTITDVDGRFTLKEIPEKAQRIRVKYIGMQPKDVKIRPIMNVTLDLEKKLAFFIQAGVGVSGYNLENNNEDIYGGNNHLYIQGGVGLNYNFSTYFSLQPSVNVVAKGCKNMGRRGSDGQGEITVDPVYLEIPVLIAARFIISDFGRLIFNAGPYAAIGIAGKGKYTDEWEGTSMKFDLFSGDEAVLKRFDAGVQAGFAYEIKHIGFSYTFGYGLLKPFKEWNKEWGATPHNISHNFGLKYIF", "soluble on expression in E. coli": "not soluble"},
      {"sequence": "MKKLFNQVLVAAGVLALLAGCASEEENVIMAPLPIVKSEFTPKTLWSASVGDGVGHYFSKLAPDYAYDKVFVASRDGVVKALDPQNGKVIWTTDLEIEGSARLSGGITAAFGKLFIGSENGVVNALDAETGEPLWASAIEGEVLAAPAADNNIVIVNTSRGALIALNQEDGAQKWTISTEVPNLTLRGDSRPTAVAGGVFWGTPSGRLAAAIAERGQLIWQQPVGQPKGATEIDRLVDVDASPLVIGGTLFTVGFNGQLIAIDLRSGQPIWKRNYSSATDMATDGSRLYLVTDKDHLVAVDTRSGTELWSNTQLEHRLLTAPKMIDDYLVVGDAEGYLHWIDRNSGEFIAQQLVNDSGFAVGPLALNDGYVIVTRNGQIKKLTIQQ", "soluble on expression in E. coli": "not soluble"},
      {"sequence": "MKKPELTATSVEKFLIEKFDSVSDLMQLSEGEESRAFSFDVGGRGYVLRVNSCADGFYKDRYVYRHFASAALPIPEVLDIGEFSESLTYCISRRAQGVTLQDLPETELPAVLQPVAEAMDAIAAADLSQTSGFGPFGPQGIGQYTTWRDFICAIADPHVYHWQTVMDDTVSASVAQALDELMLWAEDCPEVRHLVHADFGSNNVLTDNGRITAVIDWSEAMFGDSQYEVANIFFWRPWLACMEQQTRYFERRHPELAGSPRLRAYMLRIGLDQLYQSLVDGNFDDAAWAQGRCDAIVRSGAGTVGRTQIARRSAAVWTDGCVEVLADSGNRRPSTRPRAKE", "soluble on expression in E. coli": "soluble"},
      {"sequence": "MKKTLLAIVAVSALSACRQAEEGPPPLPRQISDRSVGHYCSMNLTEHNGPKAQIFLNGKPDQPVWFSTIKQMFGYTKLPEEPKGIRVIYVTDMGNVTDWTNPNADTEWMDAKKAFYVIDSGFIGGMGAEDALPFGNKEQAEKFAKDKGGKVVGFDDMPDTYIFK", "soluble on expression in E. coli": "not soluble"}
    ]}
  ]
}
